Patent US20160228506A1, “Compositions and Formulations for Prevention and Reduction of Tumorigenesis, Cancer Cell Proliferation and Invasion, and Methods of Production and Use Thereof in Cancer Treatment” (PRONUTRIA, INC., priority 2013, published 2016)
Read-outs that look alike come from different tables or passages of the source.

B1: Deglycosylated SEQID-00363: SEQID-00363 with mannose glycans reduced enzymatically by alpha mannosidase (protein)
chain: ATLDSWLSNEATVARTAILNNIGADGAWVSGADSGIVVASPSTDNPDYFYTWTRDSGLVLKTLVDLFRNGDTSLLSTIENYISAQAIVQGISNPSGDLSSGAGLGEPKFNVDETAYTGSWGRPQRDGPALRATAMIGFGQWLLDNGYTSTATDIVWPLVRNDLSYVAQYWNQTGYDLWEEVNGSSFFTIAVQHRALVEGSAFATAVGSSCSWCDSQAPEILCYLQSFWTGSFILANFDSSRSGKDANTLLGSIHTFDPEAACDDSTFQPCSPRALANHKEVVDSFRSIYTLNDGLSDSEAVAVGRYPEDTYYNGNPWFLCTLAAAEQLYDALYQWDKQGSLEVTDVSLDFFKALYSDAATGTYSSSSSTYSSIVDAVKTFADGFVSIVETHAASNGSMSEQYDKSDGEQLSARDLTWSYAALLTANNRRNSVVPASWGETSASSVPGTCAATSAIGTYSSVTVTSWPSIVATGGTTTTATPTGSGSVTSTSKTTATASKTSTSTSSTSCTTPTAVAVTFDLTATTTYGENIYLVGSISQLGDWETSDGIALSADKYTSSDPLWYVTVTLPAGESFEYKFIRIESDDSVEWESDPNREYTVPQACGTSTATVTDTWR
modifications: deglycosylated; Aspergillus niger
B2: SEQID-00485: nutritive polypeptide naturally produced in Chickpea, recombinantly expressed in E. coli (protein, listed as Cicer arietinum)
chain: MTKTGYINAAFRSSRNNEAYLFINDKYVLLDYAPGTSNDKVLYGPSFVRDGYKSLAKTIFGTYGIDCSFDTEYNEAFIFYENFCARIDYAPHSDKDKIISGPKKIADMFPFFKGTVFENGIDAAFRSTKGKEVYLFKGDKYARIDYLTNRLVQNIKSISDGFPCLRGTIFEAGMDSAFASHKTNEAYLFKGEYYARINFTPGSTNDIMGGVKKTLDYWPSLRGIIPLE
B3: SEQID-00605: nutritive polypeptide naturally produced in Mushroom, recombinantly expressed in E. coli (protein, listed as Agaricus bisporus)
chain: MLEFTLNDGNRIPAIAFGTGTALYNQDASAFVRLAIETGITHLDGAQMYENEETLGKGIKSSGKPRSELFITTKLHILKPGQTVRETLVESLGKIGVDYVDLFLIHDPTANRKEATLSEIWSQLEALKNEGLTKSIGVSNFKVEDLNEILPGAKIIPAVNQIEFHPYVLKAASPIIELCKAKGIIVASYGGQTPIVRATDGPLKDLLPKIRERLEQTRGSPVTEGQVLTKWLLQKNVIAISTSSKESRIKEFLSTVDVPDLTKQEIESIDNAGSTIHKRIYMKHIFNE
modifications: source: /note="var. bisporus"; source: /note="strain H97 / ATCC MYA-4626 / FGSC 10389"
notes: nutritive polypeptide naturally produced in Mushroom, recombinantly expressed in E. coli
B4: SEQID-00690: engineered secreted variant of SEQID-00407 enriched in essential amino acids which retains enzymatic activity (protein, listed as Bacillus subtilis)
chain: ETANKSNELTAPSIKSGTILHAWNWSFNTLKHNMKDIHDAGYTAIQTSPINQVKEGNQGDKSMSNWYWLYQPTSYQIGNRYLGTEQEFKEMCAAAEEYGIKVIVDAVINHTTSDLVGVLSNEVKSIPNWTHGNTQIKNWSDRWDVTQNSLLGLYDWNTQNTQVQSYLKRFLDRALNDGADGFRFDAAKHIELPDDGSYGSQFWPNITRVVMEFQYGEILQDSASRDAAYANYMDVTASNYGHSIRSALKNRNLGVSNIVMYILRVSADKLVTWVESHDTYANDDEESTWMSDDDIRLGWAVIASRSGSTPLFFSRPEGGGNGVRFPGKSQIGDRGSALFEDQAITAVNRFHNVMAGLPKRLSNPNGNNQIFMNQRGSHGVVLANAGSSSVSINTATKLPDGRYDNKAGAGSFQVNDGKLTGTINARSVAVLYPDDIAKAPHVFLENYKTGVTHSFNDQLTITMRADANTTKAVYQINNGPETAFKDGDQFTIGKGDPFGKTYTIMLKGTNSDGVTRTEKYSFVKRDPASAKTIGYQNPNHWSQVNAYIYKHDGSRVIELTGSWPGKPMTKNADGIYTLTLPADTDTTNAKVIFNNGSAQVPGQNQPGFDYVLNGLYNDSGLSGSLPH
modifications: source: /note="strain 168"

How the values were obtained:
Pancreatin = format: in vitro ADME, Porcine
Method: Control samples were protease-free.
Analyses were performed using an Agilent 1100 series system.

[1] = rat, in vivo, po
Method: The boavailability o native and modified forms (ie. deglycosylated and hydrolyzed) of SEQID-00363 was evaluated using the methods described in herein. Briefly, native and modified forms of SEQID-00363 were orally administered to intrajugular-cannulated rats and concentration of free amino acids in plasma samples collected over a 4 h period was determined by HPLC amino acid analysis.

[2] = rat, in vivo
Method: A rat pharmacokinetic study with oral administration of native and modified forms of SEQID-00363 was performed as described herein. The indigestible marker Cobalt-EDTA was formulated at 50 mg/L in the dosed protein solutions to monitor differences in intestinal transit rate between treatment groups and individual rats. Following the final blood collection (at t=4 h) rats were euthanized and the terminal ileum (20 cm of small intestine prior to the cecum) and its contents (the digesta) were collected into a pre-weighed tube. The ileum was flushed with saline and pooled with the digesta. The pH of the digesta was adjusted to ˜3.0 with HCl in order to inactivate all enzymes. The ileum samples were placed into separate pre-weighed 15 mL conical tubes. All samples were flash frozen in liquid nitrogen, and stored at −80° C. until further analysis. Individual ileum and ileum content weights were calculated and recorded for each sample.
A sample of the digesta, which exists as a heterogenous solution containing insoluble particles, was used in the Coomassie Plus Protein Assay, as described herein, to determine protein concentration.

[3] = simulated gi fluid
[4] = SGF digest of 168 nutritive polypeptide library, intact protein by LC-MS/MS; format: in vitro ADME; details: for % Intact Protein at 10 min: 168 nutritive polypeptide library SGF digest, LC-MS/MS spectral counts; for % Remaining at 10 min: 168 nutritive polypeptide library, LC-MS/MS
Summary of the method: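 Spectral-count ratios (10 min vs 0 min, peak gel fraction plus neighbours) give the percent of each protein left intact after SGF digestion of a pooled, IMAC-purified 168-member recombinant library. Samples were gel-fractionated, trypsinised in-gel and run on Orbitrap nanoLC-MS/MS, requiring two unique peptides at 1% FDR.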

pH solubility = format: physicochemical; details: for pH Range where Protein is >80% detected as Soluble and A650 <1 OD: Low: lower pH; for pH Range where Protein is >80% detected as Soluble and A650 <1 OD: High: upper pH
Method: pH Solubility. […] Protein was either lyophilized and then resuspended in buffer cocktail mixtures, or concentrated and then spiked into buffer cocktail mixtures at a final protein concentration of 5 to 30 mg/ml. As a control, protein was also dissolved in a solution of 8 M urea. Protein solutions were shaken for 10 min at room temperature. Turbidity of proteins was determined by measuring the absorbance of protein solutions at 650 nm. The protein solution was then centrifuged for 10 min at 1100×g to pellet undissolved or precipitated protein. The soluble protein fraction (supernatant) was sampled and protein concentration was measured by one or more of the following methods: Coomassie Plus Protein Assay (Pierce), Chip electrophoresis, gel electrophoresis, and/or absorbance at 280 nm. The pH range over which select proteins remained greater than 80% soluble as determined by Bradford and the A650 value are listed in Table E31C.

[5] = Thermostability, temperature of aggregation (ProteoStat Thermal Shift); format: physicochemical; design: key to Tagg: temperature in °C
Method: The thermostability of proteins in a buffer cocktail of Citric Acid and Dibasic Sodium Phosphate over a pH range of 2.8 to 7.1 (preparation described above in Table E31B) was determined using the ProteoStat® Thermal Shift Stability Kit (Enzo Life Sciences) according to the manufacturer's standard protocol. Briefly, protein solutions (˜10 mg/ml) containing 1× ProteoStat TS Detection Reagent were heated from 25° C. to 95° C. at a rate of 0.5° C. per 30 sec using a real-time PCR (rtPCR) thermocycler (BioRad) equipped with a plate reader (SynergyMx, Biotek) while monitoring the fluorescence with a Texas Red filter.

[6] = Intact half-life during simulated gastric fluid (SGF) digestion; details: for SGF Half-life (t½): SGF pH 1.5, pepsin:polypeptide 1:20 w/w, 37° C., intact protein; for Half-life: purified proteins, chip electrophoresis
α-amylase = test: Amylase activity assay on starch plates (halo); design: species or system Bacillus subtilis
Method: SEQID-00407 is an α-amylase in Bacillus subtilis that has the activity of breaking down polysaccharides, such as starch, into monosaccharides or disaccharides. […] If there is enzymatic activity, the secreted enzyme will breakdown the starch and upon staining by iodine, there will be a halo surrounding the Bacillus subtilis colonies. 1% starch plates were made by combining 25 g Luria Broth-Miller, 10 g starch, 15 g bacteriological agar, and 1 L water. 10 mM IPTG was added to the starch plates after the agar has solidified. Single colonies of Bacillus subtilis strains expressing the mutant polypeptides were inoculated in 5 ml LB at 37° C. for 4 hours and 50 μl of the liquid culture were spotted at the center for the starch plates. After 20 hours of growth and induced secretion, 10% iodine was added to the starch plates to stain for starch. When the wild-type enzyme is secreted, it creates a large halo around the cells. […] Table E37A quantifies the area of the halos relative to the area of the cells. […]
SEQID-00407 is an α-amylase in Bacillus subtilis that has the activity of breaking down polysaccharides, such as starch, into monosaccharides or disaccharides. […] Table E38E quantifies the area of the halos relative to the area of the cells.

Molecule	Free Leu (μM) at 120 min time point of Pancreatin digest (Pancreatin)	bioavailability of Leucine and EAAs versus native SEQID-00363 [1]	bioavailability of Serine and Threonine versus native SEQID-00363 [1]	total protein mass in digesta samples [2]	SGF Half-life (t½) [3]	% Intact Protein at 10 min [4]	% Remaining at 10 min [4]	pH Range where Protein is >80% detected as Soluble and A650 <1 OD: Low (pH solubility)	pH Range where Protein is >80% detected as Soluble and A650 <1 OD: Other (pH solubility; other pH)	pH Range where Protein is >80% detected as Soluble and A650 <1 OD: High (pH solubility)	Tagg ([5]; pH 5.0)	Tagg ([5]; pH 5.6)	Tagg ([5]; pH 6.0)	Tagg ([5]; pH 6.5)	Tagg ([5]; pH 7.1)	SGF Half-life (t½) [6]	Half-life [6]	Tagg ([5]; pH 4.6)	Halo/Cell (α-amylase; area of halo relative to area of cells)	Halo Area (in^2) (α-amylase; starch plate, iodine stain, 20 hours)
B1	799.2 µM	did not increase the bioavailability	did increase the bioavailability	7.7 mg	258 s	–	–	–	–	–	–	–	–	–	–	–	–	–	–	–
B2	764.9 µM	–	–	–	–	0%	0%	4.6	2.8	7.1	31.5	34.5	36	36.5	36	30 s	30 s	–	–	–
B3	937.1 µM	–	–	–	–	0%	0%	5.6	–	7.1	33.5	37	44.5	38.5	39	12 s	12 s	40.5	–	–
B4	–	–	–	–	–	–	–	–	–	–	–	–	–	–	–	264 s	–	–	2.63	1.234 in^2
